{
  "source": "patent US20240409647A1",
  "about": "“BISPECIFIC BINDING PROTEINS AGAINST ALARMINS AND USES THEREOF” (SINOMAB BIOSCIENCE LIMITED, priority 2022, published 2024)",
  "origin": "cited, not measured here",
  "conditions": "patients who discontinued ICS and LABA, 12 weeks; placebo 41%",
  "data": [
    {"molecule": "itepekimab: anti-IL-33 antibody (antibody, chains of the INN, looked up, V domains shown) VH: EVQLVESGGNLEQPGGSLRLSCTASGFTFSRSAMNWVRRAPGKGLEWVSGISGSGGRTYYADSVKGRFTISRDNSKNTLYLQMNSLSAEDTAAYYCAKDSYTTSWYGGMDVWGHGTTVTVSS VL: DIQMTQSPSSVSASVGDRVTITCRASQGIFSWLAWYQQKPGKAPKLLIYAASSLQSGVPSRFSGSGSGTDFTLTISSLQPEDFAIYYCQQANSVPITFGQGTRLEIK", "values": [
      {"measurement": "rate of loss of asthma control", "value": 22, "unit": "%"}
    ]}
  ]
}
